B1: NCK2 (parent)
chain: YVERKNSLKKGSLVKNLKDTLGLG
B2: NECAB1 (parent)
chain: FSPNSPQFNVSGPGLLEEDNQWMT
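Further: lentivirally expressed fusions sorted by FACS into six bins by GFP to DsRed ratio, PSI derived from sequencing read proportions per bin multiplied by bin number.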

The variants in one data set derive from B1. The data set is described as follows: protein stability index of a GFP-peptide fusion (GPS, HEK-293T) (PSI 1-6); higher = more stable. To be noted: c terminus: a fixed tail appended.
As to YVERWNSLKKGSLVKNLKDTLGLG, the protein stability index came to 2.57.
Same read-out and setting: as for YVERDNSLKKGSLVKNLKDTLGLG, the figure is 2.26; as for YVERGNSLKKGSLVKNLKDTLGLG, 2.34; as for YVERPNSLKKGSLVKNLKDTLGLG, 1.89.
The same measure, in the same setting: in the case of YVENKNSLKKGSLVKNLKDTLGLG it was 2.48.
With YVEFKNSLKKGSLVKNLKDTLGLG, the protein stability index was 1.52.
In the case of YVEVKNSLKKGSLVKNLKDTLGLG, the protein stability index amounted to 1.78.
Consider YVERKASLKKGSLVKNLKDTLGLG, for which the protein stability index stood at 2.24.
Still for that read-out and setting: as for YVERKFSLKKGSLVKNLKDTLGLG, the figure is 1.58; as for YVERKNSLKKGALVKNLKDTLGLG, 2.22.
In the case of YVERKNSLKKGQLVKNLKDTLGLG, the protein stability index turned out to be 2.27.
Turning to YVERKNSLKKGLLVKNLKDTLGLG, the protein stability index is 1.64.
On to YVERKNSLKKGELVKNLKDTLGLG, for which the protein stability index is 2.4.
For the variant YVERKNSKKKGSLVKNLKDTLGLG, the protein stability index was 2.47.
On the same count and under the same terms, as for YVERKNSHKKGSLVKNLKDTLGLG, the figure is 3.11.
As to YVERKNSSKKGSLVKNLKDTLGLG, the protein stability index turned out to be 1.99.
Turning to YVERKNSYKKGSLVKNLKDTLGLG, the protein stability index came out at 2.14.
Consider YVERKNSWKKGSLVKNLKDTLGLG, for which the protein stability index was determined as 1.89.
On the same count and under the same terms, in the case of YVERKNSIKKGSLVKNLKDTLGLG it was 2.27.
As to YVERKNSPKKGSLVKNLKDTLGLG, the protein stability index is 2.8.
The same measure, in the same setting: as for YVVRKNSLKKGSLVKNLKDTLGLG, the figure is 1.9.
The same measure, in the same setting: as for YVNRKNSLKKGSLVKNLKDTLGLG, the figure is 2.04.

The variants in the next data set derive from B2. Described as above. Conditions: c terminus: a fixed tail appended.
Consider FSPNSPQFNVSGPGLLEEDNNWMT, for which the protein stability index came out at 1.84.
With FSPNSPQFNVSGPGLLEEDNIWMT, the protein stability index was found to be 1.95.
As for FSPNSPQFNVSGPGLLEEDNVWMT, the protein stability index came out at 1.72.
Same read-out and setting: as for FSPNSPQFNVSGPGLLEEDNGWMT, the figure is 2.54; as for FSPNSPQFNVSGPGLLEEDNTWMT, 2.41.
On to FSPNSPQFNVSGPGLLEEDNFWMT, for which the protein stability index came to 1.87.
As for FSPNSPQFNVSGPGLLEEDNYWMT, the protein stability index worked out at 2.29.
Still for that read-out and setting: as for FSPNSPQFNVSGPGLLEEDNEWMT, the figure is 3.69; as for FSPNSPQFNVSGPGLLEEDNRWMT, 2.28.
For the variant FSPNSPQFNVSGPGLLEEDNMWMT, the protein stability index was found to be 1.84.
As to FSPNSPQFNVSGPGLLEEDNKWMT, the protein stability index was 3.06.
The same measure, in the same setting: in the case of FSPNSPQFNVSGPGLLEEDNLWMT it was 2.08.
Same read-out and setting: as for FSPNSPQFNVSGPGLLEEDNHWMT, the figure is 2.57; as for FSPNSPQFNVSGPGLLEEDNSWMT, 2.15.
On to FSPNSPQFNVSGPGLLEEDNPWMT, for which the protein stability index was 2.
The same measure, in the same setting: as for FSPNSPQFNVSGPGLLEEDNQWCT, the figure is 2.67.
Take FSPNSPQFNVSGPGLLEEDNQWWT: the protein stability index came out at 2.35.
The same measure, in the same setting: as for FSPNSPQFNVSGPGLLEEDNQWQT, the figure is 3.43; as for FSPNSPQFNVSGPGLLEEDNQWFT, 2.44.
On the same count and under the same terms, as for FSPNSPQFNVSGPGLLEEDNQWET, the figure is 4.15; as for FSPNSPQFNVSGPGLLEEDNQWDT, 4.65; as for FSPNSPQFNVSGPGLLEEDNQWNT, 3.45.
Still for that read-out and setting: in the case of FSPNSPQFNVSGPGLLEEDNQWIT it was 2.45.
As for FSPNSPQFNVSGPGLLEEDNQWVT, the protein stability index was 2.71.
With FSPNSPQFNVSGPGLLEEDNQWKT, the protein stability index stood at 4.15.
Regarding FSPNSPQFNVSGPGLLEEDNQWYT, the protein stability index turned out to be 2.77.
Same read-out and setting: as for FSPNSPQFNVSGPGLLEEDNQWAT, the figure is 3.66.
In the case of FSPNSPQFNVSGPGLLEEDNQWRT, the protein stability index came out at 3.08.
On to FSPNSPQFNVSGPGLLEEDNQWPT, for which the protein stability index worked out at 2.87.
Still for that read-out and setting: as for FSPNSPQFNVSGPGLLEEDNQWGT, the figure is 3.66; as for FSPNSPQFNVSGPGLLEEDNQWLT, 2.76; as for FSPNSPQFNVSGPGLLEEDNQWTT, 3.
As for FSPNSPQFNVSGPGLLEEDNQWHT, the protein stability index amounted to 2.8.
As for FSPNSPQFNVSGPGLLEEDNQWST, the protein stability index amounted to 3.5.
On the same count and under the same terms, in the case of FSPNSPQFNVSGPGLLEEDNQTMT it was 3.83; in that of FSPNSPQFNVSGPGLLEEDNQAMT, 3.96; in that of FSPNSPQFNVSGPGLLEEDNQYMT, 3.49.
Same read-out and setting: as for FSPNSPQFNVSGPGLLEEDNQPMT, the figure is 4.21; as for FSPNSPQFNVSGPGLLEEDNQDMT, 4.65.
On the same count and under the same terms, as for FSPNSPQFNVSGPGLLEEDNQKMT, the figure is 3.54; as for FSPNSPQFNVSGPGLLEEDNQIMT, 3.67.
As for FSPNSPQFNVSGPGLLEEDNQFMT, the protein stability index stood at 3.59.
Still for that read-out and setting: as for FSPNSPQFNVSGPGLLEEDNQSMT, the figure is 4.03; as for FSPNSPQFNVSGPGLLEEDNQVMT, 3.79.
Still for that read-out and setting: in the case of FSPNSPQFNVSGPGLLEEDNQMMT it was 3.39; in that of FSPNSPQFNVSGPGLLEEDNQEMT, 4.42; in that of FSPNSPQFNVSGPGLLEEDNQNMT, 4.07.
FSPNSPQFNVSGPGLLEEDNQHMT: the protein stability index came to 3.84.
As to FSPNSPQFNVSGPGLLEEDNQGMT, the protein stability index came to 3.85.
Take FSPNSPQFNVSGPGLLEEDNQCMT: the protein stability index came out at 4.1.
As to FSPNSPQFNVSGPGLLEEDNQQMT, the protein stability index was 4.03.
Same read-out and setting: in the case of FSPNSPQFNVSGPGLLEEDNQLMT it was 3.71; in that of FSPNSPQFNVSGPGLLEEDNQRMT, 3.93.
The same measure, in the same setting: as for FSPNSPQFNVSGPGLLEEDNQWMA, the figure is 2.82; as for FSPNSPQFNVSGPGLLEEDNQWMH, 2.99.
The same measure, in the same setting: as for FSPNSPQFNVSGPGLLEEDNQWMC, the figure is 2.91; as for FSPNSPQFNVSGPGLLEEDNQWMY, 2.57; as for FSPNSPQFNVSGPGLLEEDNQWMI, 2.69.
On to FSPNSPQFNVSGPGLLEEDNQWMQ, for which the protein stability index came to 3.04.
As for FSPNSPQFNVSGPGLLEEDNQWMD, the protein stability index stood at 3.57.
Consider FSPNSPQFNVSGPGLLEEDNQWMP, for which the protein stability index was 2.69.
Turning to FSPNSPQFNVSGPGLLEEDNQWMK, the protein stability index came to 2.37.
For FSPNSPQFNVSGPGLLEEDNQWMF, the protein stability index came out at 1.88.
Turning to FSPNSPQFNVSGPGLLEEDNQWML, the protein stability index is 3.
The same measure, in the same setting: as for FSPNSPQFNVSGPGLLEEDNQWMR, the figure is 2.97; as for FSPNSPQFNVSGPGLLEEDNQWMW, 1.69.
The same measure, in the same setting: as for FSPNSPQFNVSGPGLLEEDNQWMV, the figure is 2.36; as for FSPNSPQFNVSGPGLLEEDNQWMN, 2.84.
On to FSPNSPQFNVSGPGLLEEDNQWMM, for which the protein stability index worked out at 2.4.
As for FSPNSPQFNVSGPGLLEEDNQWMG, the protein stability index came to 3.01.
The same measure, in the same setting: as for FSPNSPQFNVSGPGLLEEDNQWMS, the figure is 3.27.
As to FSPNSPQFNVSGPGLLEEDNQWME, the protein stability index was found to be 3.92.

The values above are taken from the supplement of paper PMC10567573.
